Experimental data published in article PMC10641296.

Target: SCM-2 on the surface of S. canis strain IMT40096 (Streptococcus canis (endogenous in strain IMT40096))
Test: flow cytometry on cells; S. canis bacteria (mid-exponential phase) incubated with FITC-labeled human fibrinogen in PBS, 30 min at 37°C, fixed; MFI normalized to SCM-1 S. canis G361; scm2 knock-out of IMT40096 as control

**Q.** With “FITC-labeled human fibrinogen (from UniProt P02671 36-866; P02675 45-491; P02679 27-453) (complex)” as the substance, how does the fold of fluorescence against S. canis G361 read?
**A.** > 3 fold of G361
